± gives the standard deviation of the averaged measurements.
Test system: ATP
Assay: switch fluorescence ratio, 500 uM ATP over buffer (Cy3 cluster intensity, sum of 5 cycles each) (fold (ratio)); higher = stronger signal-on switching upon ATP binding; sequences stand for … in TCGTCGGCAGCGTCAGATGTGTATAAGAGACAGTTTTTTTTTTTTTTTTTTTTTTTTT…TC
Conditions: aptamer strand: ATP DNA aptamer (quencher-CACCTGGGGGAGTATTGCGGAGGAAGG + anchor), 100 nM annealed; ATP concentration: 500 uM
How it was run: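 The quencher-labelled ATP aptamer, at 100 nM, was annealed to Cy3-labelled switching-strand clusters on a modified Illumina MiSeq flow-cell. The clusters were imaged in selection buffer, then after 15 min with 500 uM ATP at 22 °C, and this buffer/ATP cycle ran five times with NaOH stripping and re-annealing between runs. Per-cluster fluorescence ratios, summed target-cycle over summed buffer-cycle Cy3 intensity, were averaged per switch-domain sequence. Clusters outside 100-1000 RFU were excluded.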
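Note: ATP exposure 15 min at 22 °C before imaging.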

Sequence	switch fluorescence ratio
TCGAGGAATT	1.02 ± 0.02
TCGAGGGAGT	1.02 ± 0.028
TCGAGGTAGA	1.01 ± 0.05
TCGAGTCATC	0.965 ± 0.019
TCGAGTGGAG	1.0319 ± 0.00064
TCGATAGACG	1.02 ± 0.018
TCGATCTTTT	1.24 ± 0.4
TCGATGCTGG	0.982 ± 0.084
TCGATTCGAT	1.35 ± 0.57
TCGATTTCTT	1.1 ± 0.077
TCGCAAAATT	2.15 ± 1.3
TCGCAGCAGG	2.82 ± 0.097
TCGCGACTTG	0.9946 ± 0.0054
TCGCGAGGAG	1.04 ± 0.014
TCGCGAGGGG	0.997 ± 0.025
TCGCGCGGTG	0.978 ± 0.021
TCGCGGGAAA	1.01 ± 0.025
TCGCTGGGAT	1.2 ± 0.27
TCGCTGTAGG	1.1 ± 0.059
TCGGAATCAA	1.127 ± 0.0071
TCGGACTCTT	1.01 ± 0.024
TCGGAGAGGA	0.986 ± 0.016
TCGGAGATAT	1 ± 0.045
TCGGAGGAAA	0.999 ± 0.047
TCGGAGGTCA	0.956 ± 0.03

Sequence	switch fluorescence ratio
TCGGATGGTT	0.978 ± 0.024
TCGGCACCGG	1.02 ± 0.024
TCGGCATGGG	1.11 ± 0.11
TCGGCATTAA	1.37 ± 0.1
TCGGCATTTT	1.027 ± 0.0014
TCGGCCCAGG	3.6 ± 1.4
TCGGCCGGGG	1.02 ± 0.015
TCGGCGAAAG	1.02 ± 0.023
TCGGCGACAT	1.005 ± 0.0072
TCGGCGAGGG	0.977 ± 0.021
TCGGCGTCTT	0.977 ± 0.04
TCGGCTATG	1.12 ± 0.15
TCGGCTATTT	1.03 ± 0.019
TCGGCTTAGG	0.987 ± 0.048
TCGGGAAATT	1.012 ± 0.0019
TCGGGACGGG	1.01 ± 0.013
TCGGGAGAGC	1.04 ± 0.038
TCGGGAGATT	1.02 ± 0.029
TCGGGATCGG	1 ± 0.015
TCGGGCAGCG	0.989 ± 0.058
TCGGGCAGGG	1.003 ± 0.0044
TCGGGGATCT	1.033 ± 0.0073
TCGGGGCCGT	0.971 ± 0.059
TCGGGGCCTC	1.04 ± 0.024
TCGGGGCTCT	1.07 ± 0.12

Sequence	switch fluorescence ratio
TCGGGGCTTT	0.982 ± 0.022
TCGGGGGAAG	1.01 ± 0.038
TCGGGGGAGC	0.984 ± 0.025
TCGGGGGGAA	1.06 ± 0.057
TCGGGGGGTT	0.998 ± 0.034
TCGGGGGTAA	1.01 ± 0.033
TCGGGGGTCG	0.954 ± 0.097
TCGGGGTCTG	0.9872 ± 0.0066
TCGGGGTGCA	0.9732 ± 0.0086
TCGGGGTGTG	0.988 ± 0.031
TCGGGGTTCG	0.992 ± 0.03
TCGGGGTTGG	0.978 ± 0.029
TCGGGTAAAA	1.01 ± 0.028
TCGGGTAGTG	1.01 ± 0.026
TCGGGTATAT	1 ± 0.044
TCGGGTCGTA	1.02 ± 0.019
TCGGGTGTGA	1.029 ± 0.0015
TCGGGTGTTG	1.03 ± 0.048
TCGGGTTGTG	0.959 ± 0.031
TCGGTAGCAG	1.092 ± 0.01
TCGGTCCGAT	0.9997 ± 0.005
TCGGTGAATT	1.01 ± 0.011
TCGGTGAGGG	1.02 ± 0.07
TCGGTGCCTG	1.01 ± 0.36
TCGGTGGTAA	0.9823 ± 0.0065

Sequence	switch fluorescence ratio
TCGGTTTTGT	0.983 ± 0.026
TCGTAAAGGA	1.03 ± 0.043
TCGTACTGAC	1.03 ± 0.044
TCGTACTGGT	0.99 ± 0.068
TCGTAGACGT	1.01 ± 0.011
TCGTAGGAGG	1.07 ± 0.024
TCGTAGGATG	0.975 ± 0.037
TCGTAGGTAA	1.1 ± 0.12
TCGTAGTATT	0.993 ± 0.021
TCGTATCATT	0.976 ± 0.02
TCGTCAGCTG	1.02 ± 0.061
TCGTCTCTTT	0.986 ± 0.018
TCGTGAACCC	1.01 ± 0.023
TCGTGAAGAG	0.987 ± 0.012
TCGTGAAGCG	1.04 ± 0.025
TCGTGATGTA	0.974 ± 0.014
TCGTGCATGG	1.046 ± 0.008
TCGTGCGCTG	0.997 ± 0.079
TCGTGCGGGG	0.969 ± 0.016
TCGTGCTGGG	1 ± 0.067
TCGTGGACGC	0.995 ± 0.031
TCGTGGATGT	1 ± 0.028
TCGTGGGGTG	0.999 ± 0.042
TCGTGGGTGC	1.01 ± 0.023
TCGTGGTTTA	0.994 ± 0.021

Sequence	switch fluorescence ratio
TCGTGGTTTC	0.9823 ± 0.0069
TCGTGTGACC	1.009 ± 0.0093
TCGTGTTCTT	0.95 ± 0.028
TCGTGTTGTT	0.969 ± 0.021
TCGTGTTTTT	1.01 ± 0.013
TCGTTAAACT	1.02 ± 0.011
TCGTTAATGG	1.004 ± 0.0049
TCGTTCGAGG	0.958 ± 0.013
TCGTTGAACG	0.973 ± 0.03
TCGTTGAGTG	1.02 ± 0.056
TCGTTGCGT	1.01 ± 0.0017
TCGTTGGCGG	0.951 ± 0.019
TCGTTGGGGA	1 ± 0.018
TCGTTGGGTG	0.994 ± 0.015
TCGTTGGTTT	0.994 ± 0.021
TCGTTGTGTG	0.981 ± 0.019
TCGTTTCATA	0.9784 ± 0.0036
TCGTTTGTGG	1.04 ± 0.013
TCGTTTTAGT	0.985 ± 0.014
TCGTTTTGTT	0.975 ± 0.051
TCGTTTTTAT	0.983 ± 0.023
TCTAAAAAGG	0.998 ± 0.025
TCTAAAATTT	1.15 ± 0.18
TCTAAAGTGT	0.983 ± 0.0088
TCTAAGGGGA	1.06 ± 0.11

Sequence	switch fluorescence ratio
TCTAAGTGAG	1.02 ± 0.016
TCTAAGTTA	0.998 ± 0.012
TCTAATGAGG	1.006 ± 0.0063
TCTAATGTGG	0.983 ± 0.043
TCTAATTCAA	0.996 ± 0.018
TCTACTGGGG	0.994 ± 0.029
TCTAGGACGG	1 ± 0.017
TCTAGGCGTC	1.07 ± 0.031
TCTAGGGCAA	1.66 ± 0.086
TCTAGTCCGA	1.003 ± 0.009
TCTAGTGGGG	1.01 ± 0.028
TCTAGTGGTA	0.9893 ± 0.0096
TCTATAAATA	0.985 ± 0.022
TCTATATGGG	0.99 ± 0.011
TCTATGATAG	0.971 ± 0.013
TCTCAAAAAT	1.1 ± 0.025
TCTCACATCG	1.01 ± 0.024
TCTCAGTAGG	1.02 ± 0.013
TCTCAGTCCA	1.02 ± 0.039
TCTCCGAGTG	1.45 ± 0.17
TCTCCGGGGA	1.2077 ± 0.0006
TCTCGAGGGG	1 ± 0.019
TCTCGCCAAG	1.06 ± 0.019
TCTCGCCTTT	0.975 ± 0.066
TCTCGGCTGG	0.9962 ± 0.001

Sequence	switch fluorescence ratio
TCTCTGGATG	1.02 ± 0.013
TCTCTGTAGG	1.03 ± 0.037
TCTCTGTCGG	1.05 ± 0.011
TCTCTGTCTC	1.12 ± 0.097
TCTCTTATGA	0.997 ± 0.011
TCTCTTGGGA	1.03 ± 0.024
TCTGAAAATG	0.998 ± 0.012
TCTGAAATTC	1.15 ± 0.055
TCTGAAATTT	0.9727 ± 0.0067
TCTGACAATC	1.91 ± 0.24
TCTGACGTA	1.04 ± 0.0091
TCTGAGGGGA	1.02 ± 0.055
TCTGATAGTT	0.998 ± 0.021
TCTGATGGTG	1.06 ± 0.039
TCTGATGTGA	1.08 ± 0.044
TCTGATGTTT	1.01 ± 0.021
TCTGCTAAAA	0.973 ± 0.041
TCTGGAATAA	1.66 ± 0.057
TCTGGCCGCG	1.015 ± 0.0075
TCTGGGAATA	1.04 ± 0.023
TCTGGGCCTT	0.999 ± 0.023
TCTGGGGAGG	1 ± 0.02
TCTGGGGGT	0.949 ± 0.02
TCTGGGGTGG	1.16 ± 0.21
TCTGGGGTTT	1.03 ± 0.051

Sequence	switch fluorescence ratio
TCTGGGTGAA	1.03 ± 0.081
TCTGGTTAGT	1.01 ± 0.066
TCTGGTTTTG	0.984 ± 0.043
TCTGTAGGTG	1.07 ± 0.046
TCTGTAGTGG	1.03 ± 0.014
TCTGTATCCG	0.984 ± 0.015
TCTGTATGTA	1.01 ± 0.026
TCTGTCCAGC	0.9775 ± 0.0046
TCTGTCCTTT	0.9708 ± 0.0028
TCTGTGACTA	1.06 ± 0.044
TCTGTGATCT	1.01 ± 0.021
TCTGTTAAT	1.11 ± 0.18
TCTGTTTGTT	1.015 ± 0.01
TCTGTTTTTT	0.989 ± 0.01
TCTTACGGGG	1.003 ± 0.01
TCTTAGCATA	1.18 ± 0.13
TCTTAGCGCG	1.07 ± 0.041
TCTTAGGACG	0.997 ± 0.036
TCTTAGGTGG	1.05 ± 0.016
TCTTAGTAGT	0.986 ± 0.028
TCTTATAATA	0.988 ± 0.032
TCTTATAATT	1.01 ± 0.011
TCTTATTCAA	0.98 ± 0.012
TCTTATTGCT	0.96 ± 0.045
TCTTATTGGT	1.01 ± 0.013
